Target: T1, CD206 on M2 macrophages derived from primary human PBMC (human (macrophages derived from primary …, UniProt P22897 19-1456))
T1 sequence (looked up): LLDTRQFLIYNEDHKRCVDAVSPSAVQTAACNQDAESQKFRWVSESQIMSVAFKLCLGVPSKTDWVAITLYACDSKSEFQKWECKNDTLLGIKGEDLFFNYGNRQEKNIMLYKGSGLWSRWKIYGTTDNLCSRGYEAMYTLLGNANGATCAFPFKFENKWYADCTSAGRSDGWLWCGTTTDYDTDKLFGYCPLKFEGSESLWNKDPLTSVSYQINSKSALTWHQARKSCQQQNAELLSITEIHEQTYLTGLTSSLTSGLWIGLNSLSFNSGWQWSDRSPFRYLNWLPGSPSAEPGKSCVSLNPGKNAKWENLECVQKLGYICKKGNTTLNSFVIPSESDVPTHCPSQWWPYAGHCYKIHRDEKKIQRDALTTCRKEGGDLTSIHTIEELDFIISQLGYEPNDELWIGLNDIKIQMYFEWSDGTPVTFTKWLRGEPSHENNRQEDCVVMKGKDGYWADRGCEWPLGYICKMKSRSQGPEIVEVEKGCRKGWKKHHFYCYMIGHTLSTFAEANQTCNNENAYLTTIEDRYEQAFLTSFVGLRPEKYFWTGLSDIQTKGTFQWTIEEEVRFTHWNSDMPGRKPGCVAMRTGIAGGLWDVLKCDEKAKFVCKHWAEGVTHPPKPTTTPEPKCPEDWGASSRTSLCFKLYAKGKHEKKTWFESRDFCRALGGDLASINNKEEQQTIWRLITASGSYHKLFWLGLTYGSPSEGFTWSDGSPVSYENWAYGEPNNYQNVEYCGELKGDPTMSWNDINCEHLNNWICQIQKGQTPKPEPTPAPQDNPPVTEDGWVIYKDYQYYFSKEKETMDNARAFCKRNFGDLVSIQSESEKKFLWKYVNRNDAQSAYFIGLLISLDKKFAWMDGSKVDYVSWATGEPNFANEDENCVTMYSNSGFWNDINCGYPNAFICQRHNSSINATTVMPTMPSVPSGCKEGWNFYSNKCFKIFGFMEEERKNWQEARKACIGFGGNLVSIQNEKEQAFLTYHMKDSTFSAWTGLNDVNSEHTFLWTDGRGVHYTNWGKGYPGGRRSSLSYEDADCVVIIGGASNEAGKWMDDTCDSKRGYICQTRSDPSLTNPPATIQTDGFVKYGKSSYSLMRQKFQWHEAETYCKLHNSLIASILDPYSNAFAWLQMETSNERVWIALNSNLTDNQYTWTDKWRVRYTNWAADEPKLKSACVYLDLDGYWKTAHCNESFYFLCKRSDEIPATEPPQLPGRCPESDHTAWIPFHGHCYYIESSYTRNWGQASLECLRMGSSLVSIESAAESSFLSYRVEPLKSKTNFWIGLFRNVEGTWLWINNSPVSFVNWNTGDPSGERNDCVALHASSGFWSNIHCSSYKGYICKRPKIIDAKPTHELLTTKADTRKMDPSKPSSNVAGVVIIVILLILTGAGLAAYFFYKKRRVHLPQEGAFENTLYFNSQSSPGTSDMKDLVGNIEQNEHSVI
Experiment: cell-based or functional assay

- GFP protein expression (MFI of transfected macrophages), fold difference between non-targeted and aCD206 targeted LNPs; Lipid 19A: 11 fold
- GFP protein expression (MFI of transfected macrophages), fold difference between non-targeted and aCD206 targeted LNPs; Lipids 15 and 46: 2 fold
B1: anti-CD206 VHH targeting moiety (aCD206 VHH), as DSPE-PEG2k-anti-CD206 VHH conjugate inserted into LNPs (VHH)
VHH: QVQLQESGGGLVQAGGSLRLSCAASGFTDDDYDIGWFRQAPGKEREGVSCISSSDGSTYYADSVKGRFTISSDNAKNTVYLQMNSLKPEDTAVYYCAADFFRWDSGSYYVRGCRHATYDYWGQGTQVTVSS
modifications: DSPE-PEG(2k)-maleimide covalently coupled to the thiol of a C-terminal cysteine residue
